According to patent US20170355744A1 (published 2017):
Several values for one entry are separate records, joined by “and”; a condition that tells them apart may be missing. Equal values may be shown once. Read-outs that look alike come from different tables or passages of the source.

Assays:
[1] = target: T1, CI-MPR receptor on human MPS IIIB fibroblasts (human), P11717; test: cell-based or functional assay
[2] = target: T1, CI-MPR receptor on human MPS IIIB …; test: cell-based or functional assay; remark: listed apart in the source
[3] = target: T2, fragment of the IGFIIR involved with IGF-II binding (domains 10-13, named protein 1288) (UniProt P11717 1367-1989); test: IGF2R competitive binding assay, displacement of 8 nM biotinylated IGF-II from plate-coated IGFIIR domains 10-13
T2 construct: domain: domains 10-13; Coated on the plate at 0.5 ug/well; also called IGF2R
T2 sequence (P11717 1367-1989 limits assumed): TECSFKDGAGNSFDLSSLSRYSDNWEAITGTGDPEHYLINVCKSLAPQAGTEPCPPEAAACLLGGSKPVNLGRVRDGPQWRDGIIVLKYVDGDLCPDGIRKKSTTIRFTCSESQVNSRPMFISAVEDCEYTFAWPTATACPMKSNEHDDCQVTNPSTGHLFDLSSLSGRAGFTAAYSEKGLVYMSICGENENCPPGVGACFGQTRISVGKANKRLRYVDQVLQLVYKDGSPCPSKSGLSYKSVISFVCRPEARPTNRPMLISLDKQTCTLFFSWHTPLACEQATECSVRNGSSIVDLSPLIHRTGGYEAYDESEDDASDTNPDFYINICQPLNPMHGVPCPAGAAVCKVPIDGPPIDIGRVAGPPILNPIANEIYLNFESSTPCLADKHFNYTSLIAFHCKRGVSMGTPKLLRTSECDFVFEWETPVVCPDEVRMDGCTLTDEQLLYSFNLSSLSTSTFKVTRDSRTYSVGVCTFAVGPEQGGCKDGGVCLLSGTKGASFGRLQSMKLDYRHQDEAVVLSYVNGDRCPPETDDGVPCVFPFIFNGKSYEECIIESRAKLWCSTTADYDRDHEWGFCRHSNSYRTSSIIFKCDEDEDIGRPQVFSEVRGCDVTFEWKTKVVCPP
Description: To measure the ability of the Naglu fusion protein constructs to bind to the IGF-II receptor a competitive binding assay is carried out. A fragment of the IGFIIR involved with IGF-II binding (domains 10-13, named protein 1288) is coated onto 96-well plates. Biotinylated IGF-II is incubated with the receptor in the presence of increasing amounts of competitors: either control IGF-II (non-biotinylated), or fusion protein sample (containing an IGF-II-derived GILT epitope tag). Receptor-bound biotinylated IGF-II is detected with streptavidin conjugated to horseradish peroxidase (HRP) and a chemiluminescent HRP substrate. The ability of the fusion protein to inhibit binding of biotinylated IGF-II to the IGFIIR is calculated from inhibition curves and reported as an IC₅₀ value (concentration required to achieve 50% binding inhibition).
For the assay, IGFIIR is coated in a white Reacti-bind plate (Pierce, Cat#437111) at 0.5 μg/well in a volume of 100 μl (69.6 nM/per well) in coating buffer. The plate is sealed and incubated overnight at room temperature. The plate is then washed 3× with wash buffer, blocked with blocking buffer and then washed again 3× with wash buffer (300 μl/well).

T1 sequence (P11717 41-2491): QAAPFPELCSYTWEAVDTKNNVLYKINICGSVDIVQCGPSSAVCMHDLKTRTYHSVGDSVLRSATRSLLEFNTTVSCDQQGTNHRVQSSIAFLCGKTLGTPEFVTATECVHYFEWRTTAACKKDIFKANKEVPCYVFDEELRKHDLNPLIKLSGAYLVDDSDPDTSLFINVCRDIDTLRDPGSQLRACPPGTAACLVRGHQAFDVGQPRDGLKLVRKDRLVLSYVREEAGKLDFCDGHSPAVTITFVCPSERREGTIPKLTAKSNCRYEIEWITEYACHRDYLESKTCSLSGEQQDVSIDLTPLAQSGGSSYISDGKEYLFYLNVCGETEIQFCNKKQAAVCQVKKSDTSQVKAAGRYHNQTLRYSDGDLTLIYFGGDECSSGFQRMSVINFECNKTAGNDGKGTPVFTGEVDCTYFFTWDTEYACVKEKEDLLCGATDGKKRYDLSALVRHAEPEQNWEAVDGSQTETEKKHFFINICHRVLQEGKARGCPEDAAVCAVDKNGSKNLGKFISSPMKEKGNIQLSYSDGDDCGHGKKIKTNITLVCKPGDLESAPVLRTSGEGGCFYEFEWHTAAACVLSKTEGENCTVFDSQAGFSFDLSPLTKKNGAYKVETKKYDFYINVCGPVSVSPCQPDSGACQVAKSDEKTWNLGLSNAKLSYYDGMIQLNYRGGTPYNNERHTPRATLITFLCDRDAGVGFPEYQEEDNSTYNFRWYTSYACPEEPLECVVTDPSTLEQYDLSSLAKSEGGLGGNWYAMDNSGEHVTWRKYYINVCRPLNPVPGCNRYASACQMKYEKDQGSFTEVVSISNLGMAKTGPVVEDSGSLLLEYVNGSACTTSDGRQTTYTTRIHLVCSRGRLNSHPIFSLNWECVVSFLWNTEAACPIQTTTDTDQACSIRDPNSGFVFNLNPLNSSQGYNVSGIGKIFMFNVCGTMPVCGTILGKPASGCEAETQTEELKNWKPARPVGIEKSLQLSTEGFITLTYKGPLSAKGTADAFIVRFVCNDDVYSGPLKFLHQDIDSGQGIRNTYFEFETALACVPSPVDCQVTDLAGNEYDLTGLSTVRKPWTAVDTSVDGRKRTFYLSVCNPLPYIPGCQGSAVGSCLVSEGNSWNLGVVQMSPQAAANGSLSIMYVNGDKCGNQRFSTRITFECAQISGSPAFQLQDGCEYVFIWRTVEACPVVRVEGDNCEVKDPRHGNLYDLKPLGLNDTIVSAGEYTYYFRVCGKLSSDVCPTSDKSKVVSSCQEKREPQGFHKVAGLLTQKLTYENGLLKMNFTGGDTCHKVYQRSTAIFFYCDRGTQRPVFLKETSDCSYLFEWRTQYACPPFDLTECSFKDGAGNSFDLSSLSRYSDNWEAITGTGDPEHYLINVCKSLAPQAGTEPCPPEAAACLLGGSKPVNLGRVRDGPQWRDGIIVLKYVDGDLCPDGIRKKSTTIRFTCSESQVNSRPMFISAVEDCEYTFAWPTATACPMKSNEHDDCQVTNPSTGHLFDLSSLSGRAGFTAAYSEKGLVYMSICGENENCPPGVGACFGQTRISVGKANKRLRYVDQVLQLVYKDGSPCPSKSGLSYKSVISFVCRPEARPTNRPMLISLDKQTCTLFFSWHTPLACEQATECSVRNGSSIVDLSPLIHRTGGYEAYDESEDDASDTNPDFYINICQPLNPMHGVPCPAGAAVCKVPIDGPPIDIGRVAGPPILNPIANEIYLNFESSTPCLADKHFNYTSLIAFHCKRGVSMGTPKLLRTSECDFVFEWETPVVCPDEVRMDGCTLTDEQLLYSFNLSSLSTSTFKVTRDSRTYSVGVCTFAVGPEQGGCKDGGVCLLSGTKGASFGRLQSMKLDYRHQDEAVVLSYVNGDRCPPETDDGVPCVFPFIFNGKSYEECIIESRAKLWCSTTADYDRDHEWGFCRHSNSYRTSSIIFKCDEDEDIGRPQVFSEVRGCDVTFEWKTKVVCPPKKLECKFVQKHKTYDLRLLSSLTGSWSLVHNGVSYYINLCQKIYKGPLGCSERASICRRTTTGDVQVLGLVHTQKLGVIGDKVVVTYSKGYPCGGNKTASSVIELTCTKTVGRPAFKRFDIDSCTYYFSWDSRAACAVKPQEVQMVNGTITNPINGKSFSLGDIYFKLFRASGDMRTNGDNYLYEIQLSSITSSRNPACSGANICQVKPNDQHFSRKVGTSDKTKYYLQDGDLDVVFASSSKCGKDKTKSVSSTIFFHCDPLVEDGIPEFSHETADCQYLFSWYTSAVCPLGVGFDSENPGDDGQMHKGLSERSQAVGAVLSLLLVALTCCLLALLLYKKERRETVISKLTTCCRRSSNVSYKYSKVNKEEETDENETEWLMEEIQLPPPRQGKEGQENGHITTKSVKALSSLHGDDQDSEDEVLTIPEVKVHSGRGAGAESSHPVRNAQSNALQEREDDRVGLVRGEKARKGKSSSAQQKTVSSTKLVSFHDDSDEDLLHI

B1: Naglu-(GGGGS)4GGGPS-IGF-II (SEQ ID NO: 568) (enzyme)
chain: DEAREAAAVRALVARLLGPGPAADFSVSVERALAAKPGLDTYSLGGGGAARVRVRGSTGVAAAAGLHRYLRDFCGCHVAWSGSQLRLPRPLPAVPGELTEATPNRYRYYQNVCTQSYSFVWWDWARWEREIDWMALNGINLALAWSGQEAIWQRVYLALGLTQAEINEFFTGPAFLAWGRMGNLHTWDGPLPPSWHIKQLYLQHRVLDQMRSFGMTPVLPAFAGHVPEAVTRVFPQVNVTKMGSWGHFNCSYSCSFLLAPEDPIFPIIGSLFLRELIKEFGTDHIYGADTFNEMQPPSSEPSYLAAATTAVYEAMTAVDTEAVWLLQGWLFQHQPQFWGPAQIRAVLGAVPRGRLLVLDLFAESQPVYTRTASFQGQPFIWCMLHNFGGNHGLFGALEAVNGGPEAARLFPNSTMVGTGMAPEGISQNEVVYSLMAELGWRKDPVPDLAAWVTSFAARRYGVSHPDAGAAWRLLLRSVYNCSGEACRGHNRSPLVRRPSLQMNTSIWYNRSDVFEAWRLLLTSAPSLATSPAFRYDLLDLTRQAVQELVSLYYEEARSAYLSKELASLLRAGGVLAYELLPALDEVLASDSRFLLGSWLEQARAAAVSEAEADFYEQNSRYQLTLWGPEGNILDYANKQLAGLVANYYTPRWRLFLEALVDSVAQGIPFQQHQFDKNVFQLEQAFVLSKQRYPSQPRGDTVDLAKKIFLKYYPRWVAGSWGGGGSGGGGSGGGGSGGGGSGGGPSLCGGELVDTLQFVCGDRGFYFSRPASRVSARSRGIVEECCFRSCDLALLETYCATPAKSE
notes: The construct encodes full-length Naglu 1-743 with its signal peptide; also called Naglu fusion protein; GILT-tagged Naglu-IGF-II fusion protein
- Kuptake [1]: 7 to 9 nM
- Kuptake [2]: 5.4 nM
- IC50 [3]: 270 pM and 230 pM

B2: Naglu-(GGGGA)4GGGPS-IGF-II (SEQ ID NO: 569) (enzyme)
chain: DEAREAAAVRALVARLLGPGPAADFSVSVERALAAKPGLDTYSLGGGGAARVRVRGSTGVAAAAGLHRYLRDFCGCHVAWSGSQLRLPRPLPAVPGELTEATPNRYRYYQNVCTQSYSFVWWDWARWEREIDWMALNGINLALAWSGQEAIWQRVYLALGLTQAEINEFFTGPAFLAWGRMGNLHTWDGPLPPSWHIKQLYLQHRVLDQMRSFGMTPVLPAFAGHVPEAVTRVFPQVNVTKMGSWGHFNCSYSCSFLLAPEDPIFPIIGSLFLRELIKEFGTDHIYGADTFNEMQPPSSEPSYLAAATTAVYEAMTAVDTEAVWLLQGWLFQHQPQFWGPAQIRAVLGAVPRGRLLVLDLFAESQPVYTRTASFQGQPFIWCMLHNFGGNHGLFGALEAVNGGPEAARLFPNSTMVGTGMAPEGISQNEVVYSLMAELGWRKDPVPDLAAWVTSFAARRYGVSHPDAGAAWRLLLRSVYNCSGEACRGHNRSPLVRRPSLQMNTSIWYNRSDVFEAWRLLLTSAPSLATSPAFRYDLLDLTRQAVQELVSLYYEEARSAYLSKELASLLRAGGVLAYELLPALDEVLASDSRFLLGSWLEQARAAAVSEAEADFYEQNSRYQLTLWGPEGNILDYANKQLAGLVANYYTPRWRLFLEALVDSVAQGIPFQQHQFDKNVFQLEQAFVLSKQRYPSQPRGDTVDLAKKIFLKYYPRWVAGSWGGGGAGGGGAGGGGAGGGGAGGGPSLCGGELVDTLQFVCGDRGFYFSRPASRVSARSRGIVEECCFRSCDLALLETYCATPAKSE
notes: also called Naglu fusion protein
- Kuptake [2]: 6.3 nM
- IC50 [3]: 360 pM

B3: Naglu-Rigid-IGF-II (SEQ ID NO: 566) (enzyme)
chain: DEAREAAAVRALVARLLGPGPAADFSVSVERALAAKPGLDTYSLGGGGAARVRVRGSTGVAAAAGLHRYLRDFCGCHVAWSGSQLRLPRPLPAVPGELTEATPNRYRYYQNVCTQSYSFVWWDWARWEREIDWMALNGINLALAWSGQEAIWQRVYLALGLTQAEINEFFTGPAFLAWGRMGNLHTWDGPLPPSWHIKQLYLQHRVLDQMRSFGMTPVLPAFAGHVPEAVTRVFPQVNVTKMGSWGHFNCSYSCSFLLAPEDPIFPIIGSLFLRELIKEFGTDHIYGADTFNEMQPPSSEPSYLAAATTAVYEAMTAVDTEAVWLLQGWLFQHQPQFWGPAQIRAVLGAVPRGRLLVLDLFAESQPVYTRTASFQGQPFIWCMLHNFGGNHGLFGALEAVNGGPEAARLFPNSTMVGTGMAPEGISQNEVVYSLMAELGWRKDPVPDLAAWVTSFAARRYGVSHPDAGAAWRLLLRSVYNCSGEACRGHNRSPLVRRPSLQMNTSIWYNRSDVFEAWRLLLTSAPSLATSPAFRYDLLDLTRQAVQELVSLYYEEARSAYLSKELASLLRAGGVLAYELLPALDEVLASDSRFLLGSWLEQARAAAVSEAEADFYEQNSRYQLTLWGPEGNILDYANKQLAGLVANYYTPRWRLFLEALVDSVAQGIPFQQHQFDKNVFQLEQAFVLSKQRYPSQPRGDTVDLAKKIFLKYYPRWVAGSWGAPGGGSPAPAPTPAPAPTPAPAGGGPSGAPLCGGELVDTLQFVCGDRGFYFSRPASRVSARSRGIVEECCFRSCDLALLETYCATPAKSE
notes: as for B2
- Kuptake [2]: 2.4 nM
- IC50 [3]: 230 pM

B4: Naglu-Helical-IGF-II (SEQ ID NO: 567) (enzyme)
chain: DEAREAAAVRALVARLLGPGPAADFSVSVERALAAKPGLDTYSLGGGGAARVRVRGSTGVAAAAGLHRYLRDFCGCHVAWSGSQLRLPRPLPAVPGELTEATPNRYRYYQNVCTQSYSFVWWDWARWEREIDWMALNGINLALAWSGQEAIWQRVYLALGLTQAEINEFFTGPAFLAWGRMGNLHTWDGPLPPSWHIKQLYLQHRVLDQMRSFGMTPVLPAFAGHVPEAVTRVFPQVNVTKMGSWGHFNCSYSCSFLLAPEDPIFPIIGSLFLRELIKEFGTDHIYGADTFNEMQPPSSEPSYLAAATTAVYEAMTAVDTEAVWLLQGWLFQHQPQFWGPAQIRAVLGAVPRGRLLVLDLFAESQPVYTRTASFQGQPFIWCMLHNFGGNHGLFGALEAVNGGPEAARLFPNSTMVGTGMAPEGISQNEVVYSLMAELGWRKDPVPDLAAWVTSFAARRYGVSHPDAGAAWRLLLRSVYNCSGEACRGHNRSPLVRRPSLQMNTSIWYNRSDVFEAWRLLLTSAPSLATSPAFRYDLLDLTRQAVQELVSLYYEEARSAYLSKELASLLRAGGVLAYELLPALDEVLASDSRFLLGSWLEQARAAAVSEAEADFYEQNSRYQLTLWGPEGNILDYANKQLAGLVANYYTPRWRLFLEALVDSVAQGIPFQQHQFDKNVFQLEQAFVLSKQRYPSQPRGDTVDLAKKIFLKYYPRWVAGSWGAPGGGSPAEAAAKEAAAKEAAAKEAAAKEAAAKAPSGGGGAPLCGGELVDTLQFVCGDRGFYFSRPASRVSARSRGIVEECCFRSCDLALLETYCATPAKSE
notes: as for B2
- Kuptake [2]: 2.3 nM
- IC50 [3]: 250 pM

B5: Naglu-XTEN-IGF-II (SEQ ID NO: 565) (enzyme)
chain: DEAREAAAVRALVARLLGPGPAADFSVSVERALAAKPGLDTYSLGGGGAARVRVRGSTGVAAAAGLHRYLRDFCGCHVAWSGSQLRLPRPLPAVPGELTEATPNRYRYYQNVCTQSYSFVWWDWARWEREIDWMALNGINLALAWSGQEAIWQRVYLALGLTQAEINEFFTGPAFLAWGRMGNLHTWDGPLPPSWHIKQLYLQHRVLDQMRSFGMTPVLPAFAGHVPEAVTRVFPQVNVTKMGSWGHFNCSYSCSFLLAPEDPIFPIIGSLFLRELIKEFGTDHIYGADTFNEMQPPSSEPSYLAAATTAVYEAMTAVDTEAVWLLQGWLFQHQPQFWGPAQIRAVLGAVPRGRLLVLDLFAESQPVYTRTASFQGQPFIWCMLHNFGGNHGLFGALEAVNGGPEAARLFPNSTMVGTGMAPEGISQNEVVYSLMAELGWRKDPVPDLAAWVTSFAARRYGVSHPDAGAAWRLLLRSVYNCSGEACRGHNRSPLVRRPSLQMNTSIWYNRSDVFEAWRLLLTSAPSLATSPAFRYDLLDLTRQAVQELVSLYYEEARSAYLSKELASLLRAGGVLAYELLPALDEVLASDSRFLLGSWLEQARAAAVSEAEADFYEQNSRYQLTLWGPEGNILDYANKQLAGLVANYYTPRWRLFLEALVDSVAQGIPFQQHQFDKNVFQLEQAFVLSKQRYPSQPRGDTVDLAKKIFLKYYPRWVAGSWGAPGGSPAGSPTSTEEGTSESATPESGPGTSTEPSEGSAPGSPAGSPTSTGPSGAPLCGGELVDTLQFVCGDRGFYFSRPASRVSARSRGIVEECCFRSCDLALLETYCATPAKSE
notes: as for B2
- Kuptake [2]: 3.7 nM
- IC50 [3]: 240 pM
